Results as given in the supplement of paper PMC12042874.
± gives the uncertainty stated by the source.

Assay: amyloid nucleation score (Sup35N fusion, yeast selection) (log enrichment); library NNK3; higher = more nucleation; inactive = no reads after selection
How it was run: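 Plasmid inserts were Illumina-sequenced at input and output from psi-negative yeast expressing Sup35N fused to peptides of 20 random codons. The yeast were induced with 100 μM copper sulfate for 24 hours and grown 7 days at 30°C on medium lacking adenine and uracil, and sequences with under 100 input reads were excluded. Nucleation score is the DiMSum log enrichment of output over input reads, centred on the mode score of non-aggregating sequences.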

Substance: GILNFAL
- amyloid nucleation score: inactive

Substance: GILNT
- amyloid nucleation score: inactive

Substance: GILSKIDVSWWRMAVSVKCW
- amyloid nucleation score: inactive

Substance: GIRHVGLVGTMSRKDWSYFR
- amyloid nucleation score: inactive

Substance: GIRYQRFVRRVFHDYWR
- amyloid nucleation score: inactive

Substance: GISALSVWFCISDRRSDQDH
- amyloid nucleation score: 2.63 ± 0.057

Substance: GITMFGLHMYQNDCLEVAWL
- amyloid nucleation score: 0.904 ± 0.25

Substance: GITVMSLTG
- amyloid nucleation score: inactive

Substance: GIVDQFRTVSNNVLNQYEIW
- amyloid nucleation score: inactive

Substance: GIWCDITHGNRMAWNYVLIR
- amyloid nucleation score: inactive

Substance: GIWDWVLAIMLRFVTKPS
- amyloid nucleation score: inactive

Substance: GKGPNCMGASFLNGAHWSGI
- amyloid nucleation score: inactive

Substance: GKISTRFRFFSVDETRPTIN
- amyloid nucleation score: 1.18 ± 0.15

Substance: GKKLDMYHIRHSRW
- amyloid nucleation score: inactive

Substance: GKVYLYLCLGMMFGL
- amyloid nucleation score: inactive

Substance: GKYKFSLF
- amyloid nucleation score: inactive

Substance: GLCPYSIQFFGGRSDHNW
- amyloid nucleation score: 1.24 ± 0.15

Substance: GLCRWVTPTAWSAIVVQFCV
- amyloid nucleation score: inactive

Substance: GLCSMLASFRTQYSS
- amyloid nucleation score: inactive

Substance: GLDHLPMFWYRPLIWPDVPQ
- amyloid nucleation score: inactive

Substance: GLEFRARRKCRTKGELHDK
- amyloid nucleation score: inactive

Substance: GLFESERIYMWAYHFR
- amyloid nucleation score: inactive

Substance: GLFRFFVIIITEEVRRAVSK
- amyloid nucleation score: inactive

Substance: GLFRRVRGIRT
- amyloid nucleation score: inactive

Substance: GLGPSCSQYKP
- amyloid nucleation score: inactive

Substance: GLGTAD
- amyloid nucleation score: inactive

Substance: GLIVCVVASSYLMSGFGVKG
- amyloid nucleation score: 0.03 ± 0.22

Substance: GLMESSCRMGLLNPIQTFTQ
- amyloid nucleation score: 0.036 ± 0.98

Substance: GLPLVACLMSEQYCL
- amyloid nucleation score: inactive

Substance: GLQVYMIQRIETGM
- amyloid nucleation score: inactive

Substance: GLTTSYQPYILYIL
- amyloid nucleation score: inactive

Substance: GLVLTPDEEMIRQWEMLTYG
- amyloid nucleation score: inactive

Substance: GLVNVVWMCFLGWPWLKVRS
- amyloid nucleation score: inactive

Substance: GLVSGGVFMMADMSRILKGK
- amyloid nucleation score: inactive

Substance: GLVYWVQHGCWLTAIQSVLV
- amyloid nucleation score: inactive

Substance: GMFDCMIELYISGPDLGQGS
- amyloid nucleation score: inactive

Substance: GMFMCMKMVFFLKWYINLYF
- amyloid nucleation score: inactive

Substance: GMFRDHAYADCRGLTY
- amyloid nucleation score: inactive

Substance: GMIASDVFAHFKSGQTMGVW
- amyloid nucleation score: inactive

Substance: GNDVGSMFESRN
- amyloid nucleation score: inactive

Substance: GNFINHT
- amyloid nucleation score: inactive

Substance: GNGSMVVYKSARVNLLSGIT
- amyloid nucleation score: inactive

Substance: GNIVLMMSYILM
- amyloid nucleation score: 2.3 ± 0.086

Substance: GNLLMYHGIWGTNALEDRYL
- amyloid nucleation score: inactive

Substance: GNMKNHTMQFAEVVDGDFTM
- amyloid nucleation score: inactive

Substance: GNMQVRYRIESANNRMGQRE
- amyloid nucleation score: 0.261 ± 0.47

Substance: GNNVTHSRDRCSMWYWVHLL
- amyloid nucleation score: inactive

Substance: GNSASLEEVVLMEEGGVLCA
- amyloid nucleation score: inactive

Substance: GNWWCNCTQYNLGMMDSALG
- amyloid nucleation score: 1.98 ± 0.071

Substance: GNYSREVRKNVYPETGVRQM
- amyloid nucleation score: inactive

Substance: GPLFRLRMFL
- amyloid nucleation score: inactive

Substance: GPLSHRN
- amyloid nucleation score: inactive

Substance: GPMWQLAVTCACSDNRMWTK
- amyloid nucleation score: 0.053 ± 0.51

Substance: GPQYWCVTRNNYYGSFYEVS
- amyloid nucleation score: 0.407 ± 0.18

Substance: GPSPDPNRLP
- amyloid nucleation score: -0.754 ± 1.3

Substance: GPSSMINNVDLSCFSF
- amyloid nucleation score: inactive

Substance: GPWGSNNMQICTYFQNLFIA
- amyloid nucleation score: 1.73 ± 0.092

Substance: GQHSRSLDTSACCPT
- amyloid nucleation score: inactive

Substance: GQNPSLRLVKESGF
- amyloid nucleation score: inactive

Substance: GQNSRPGLANTLLYPEVLIR
- amyloid nucleation score: inactive

Substance: GQSNMFCNWTFANVKRCNL
- amyloid nucleation score: 2.33 ± 0.071

Substance: GQVLNCVRNRIRIAVKRRGG
- amyloid nucleation score: inactive

Substance: GRCMEGS
- amyloid nucleation score: inactive

Substance: GRCRITKSLGGSSQTNGYWV
- amyloid nucleation score: inactive

Substance: GRGNAGPCTSNRWDDFWEKK
- amyloid nucleation score: inactive

Substance: GRGTYGSNPYRGLDIYRYDG
- amyloid nucleation score: inactive

Substance: GRHNKCMVDLVEDFQLASIW
- amyloid nucleation score: inactive

Substance: GRLSTAICFCGTMPSRWGFS
- amyloid nucleation score: inactive

Substance: GRPICNYCRYVVVSVSMRRQ
- amyloid nucleation score: inactive

Substance: GRRMSNLEKPVLLDIKANFL
- amyloid nucleation score: inactive

Substance: GRWMMWFIEFYNGRQESWGN
- amyloid nucleation score: inactive

Substance: GSCWLDVCQDCKSFSILS
- amyloid nucleation score: inactive

Substance: GSFAGCMGCLCYILVCSVYR
- amyloid nucleation score: 0.717 ± 0.12

Substance: GSGHAVIEVIRRFCSEDDNK
- amyloid nucleation score: inactive

Substance: GSLCLSGKKIVFLHMNEAMG
- amyloid nucleation score: inactive

Substance: GSLYFSCINPM
- amyloid nucleation score: inactive

Substance: GSNQMPDPPHWPRDYNAEKR
- amyloid nucleation score: inactive

Substance: GSQYNSFSK
- amyloid nucleation score: inactive

Substance: GSRVLKAWGSLSLILTSYDG
- amyloid nucleation score: inactive

Substance: GSSCRRINTEYSLAAYQSYE
- amyloid nucleation score: inactive

Substance: GSSIEPDWL
- amyloid nucleation score: inactive

Substance: GSSRQNY
- amyloid nucleation score: inactive

Substance: GSSRRKKLTV
- amyloid nucleation score: inactive

Substance: GSTTWYDLMIYLDME
- amyloid nucleation score: inactive

Substance: GSVTEGFVGLG
- amyloid nucleation score: inactive

Substance: GSVVTQGCGNLTLEAA
- amyloid nucleation score: inactive

Substance: GSVYETNDTELLRVTLR
- amyloid nucleation score: inactive

Substance: GSYSGM
- amyloid nucleation score: inactive

Substance: GTALLRFGIVGPNDLVRLCC
- amyloid nucleation score: inactive

Substance: GTEDWPNHGKKTLAINYLCP
- amyloid nucleation score: inactive

Substance: GTISIGSIRAVLLAFPFYAL
- amyloid nucleation score: 1.08 ± 0.13

Substance: GTMVSEIDWVRLTYTGYSE
- amyloid nucleation score: inactive

Substance: GTNWCGIFLNFLLFVML
- amyloid nucleation score: inactive

Substance: GTQLFFYMMCARFKDNL
- amyloid nucleation score: 0.195 ± 0.38

Substance: GTRIFSRDVISSGFQGSICL
- amyloid nucleation score: inactive

Substance: GTTRATPSGPLCMNGKENVV
- amyloid nucleation score: inactive

Substance: GTYCFINLTTRTGDRKGRHA
- amyloid nucleation score: 1.05 ± 0.12

Substance: GTYLKNF
- amyloid nucleation score: inactive

Substance: GVCGVLGFYFDPIITSL
- amyloid nucleation score: inactive

Substance: GVCRVVRSNHCMLWFRLDSS
- amyloid nucleation score: inactive

Substance: GVEMHVFWDLA
- amyloid nucleation score: inactive

Substance: GVFGESS
- amyloid nucleation score: inactive

Substance: GVGSRG
- amyloid nucleation score: inactive

Substance: GVHDRLTVSRFCLGVNGDGV
- amyloid nucleation score: inactive

Substance: GVKTHGIAVMKVGLRRLCQG
- amyloid nucleation score: inactive

Substance: GVLEAFLTDIIPMYGYVRVA
- amyloid nucleation score: inactive

Substance: GVLLFLYCYLRGPLYSTTSV
- amyloid nucleation score: inactive

Substance: GVLLNTSELGSNGMDSKTLD
- amyloid nucleation score: inactive

Substance: GVLSCLSIMIAISGLPGSEK
- amyloid nucleation score: 0.801 ± 0.2

Substance: GVLTTALVGTCWPSTCFYGL
- amyloid nucleation score: inactive

Substance: GVSISQPTILQWSTVRTSID
- amyloid nucleation score: 0.04 ± 0.85

Substance: GVSVCVGDVGNLAAFECFRA
- amyloid nucleation score: inactive

Substance: GVYVWFAALNNPTVEGFLNS
- amyloid nucleation score: inactive

Substance: GWELTFRSEF
- amyloid nucleation score: inactive

Substance: GWLGSVGAKPADRVGKTGGI
- amyloid nucleation score: 0.504 ± 0.24

Substance: GWMSATVLFQLSE
- amyloid nucleation score: inactive

Substance: GWNSFPRPLYPRWDNSESAS
- amyloid nucleation score: inactive

Substance: GWNTSSQRLHSAKPSHHRR
- amyloid nucleation score: -0.892 ± 1.9

Substance: GWWRMAWLV
- amyloid nucleation score: inactive

Substance: GWYLFC
- amyloid nucleation score: inactive

Substance: GYDQKLES
- amyloid nucleation score: inactive

Substance: GYESLYRQHLYDSSLCWESR
- amyloid nucleation score: inactive

Substance: GYFFGTTKKCETFTCMRWQV
- amyloid nucleation score: inactive

Substance: GYMDAGIDWF
- amyloid nucleation score: inactive

Substance: GYMRSLYIRYYSRRRFRCI
- amyloid nucleation score: inactive

Substance: GYMWNRVGCLVEDDHNEGVN
- amyloid nucleation score: inactive

Substance: GYQNVSTHRVKALAHRIWVG
- amyloid nucleation score: inactive

Substance: GYYFWQWLRIIL
- amyloid nucleation score: inactive

Substance: HAGATL
- amyloid nucleation score: inactive

Substance: HARFNVRNN
- amyloid nucleation score: inactive

Substance: HASMQFWKVDNSFNALMRLG
- amyloid nucleation score: 0.398 ± 0.18

Substance: HASSHYT
- amyloid nucleation score: inactive

Substance: HCCVLSARGWLIGSMRWPHC
- amyloid nucleation score: inactive

Substance: HCLSHTLQHNHTMISANSRS
- amyloid nucleation score: inactive

Substance: HCQQGS
- amyloid nucleation score: inactive

Substance: HCQSRRWTKFLYMGWLPSSS
- amyloid nucleation score: 1.55 ± 0.1

Substance: HDNQFYVMLWAISAAYRLAS
- amyloid nucleation score: inactive

Substance: HECVYYSSLTQSYVSVYIFT
- amyloid nucleation score: 2.65 ± 0.077

Substance: HENYEFLFWWRESFS
- amyloid nucleation score: inactive

Substance: HEVLVVIRNLFDFVVFCVLQ
- amyloid nucleation score: inactive

Substance: HEYKCKL
- amyloid nucleation score: inactive

Substance: HFPAGFFSNWFCSIYYKVY
- amyloid nucleation score: inactive

Substance: HFPTCWVGYVKHAVLRYLIY
- amyloid nucleation score: inactive

Substance: HGAVRQLNRGRKWSSLETVG
- amyloid nucleation score: 0.85 ± 0.19

Substance: HGFSVTILTRVLTVGNSRRS
- amyloid nucleation score: inactive

Substance: HGGMVSMGGNKQ
- amyloid nucleation score: inactive

Substance: HGKSYILVWCMRHSRTECVR
- amyloid nucleation score: inactive

Substance: HGKVGKRFRLGQKAYVSGLW
- amyloid nucleation score: inactive

Substance: HGMVRCKSDQACDSMVGCVR
- amyloid nucleation score: inactive

Substance: HGRLLYVSYISDMINASYGQ
- amyloid nucleation score: inactive

Substance: HGTIVIDYRHSPW
- amyloid nucleation score: 1.07 ± 0.1

Substance: HGTKREKIYLYGYCPDKNHH
- amyloid nucleation score: inactive

Substance: HHKAEGAHVKITDLSFDVKS
- amyloid nucleation score: inactive

Substance: HHLKGQ
- amyloid nucleation score: inactive

Substance: HHTKILSSYISWVYILITNS
- amyloid nucleation score: inactive

Substance: HHYCRGSICESVSQMYWISW
- amyloid nucleation score: inactive

Substance: HIEFNWPVGLARSWMFCFSH
- amyloid nucleation score: inactive

Substance: HIPGNLYYKDTFRCAELGHW
- amyloid nucleation score: inactive
